From the supplement of paper PMC12042874
± gives the uncertainty stated by the source.

Test: amyloid nucleation score (Sup35N fusion, yeast selection) (log enrichment); library NNK3; higher = more nucleation; inactive = no reads after selection
Method in brief: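 Plasmid inserts were Illumina-sequenced at input and output from psi-negative yeast expressing Sup35N fused to peptides of 20 random codons. The yeast were induced with 100 μM copper sulfate for 24 hours and grown 7 days at 30°C on medium lacking adenine and uracil, and sequences with under 100 input reads were excluded. Nucleation score is the DiMSum log enrichment of output over input reads, centred on the mode score of non-aggregating sequences.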

Row | Substance | amyloid nucleation score
1 | IPVFMLLMYRVSMMDSSSKS | inactive
2 | IPYRVFRRTLNLVENMMCRM | inactive
3 | IQCIWDIVGDCWCNSSMGKE | inactive
4 | IQDHYSDPAN | inactive
5 | IQDLEASRFGSIVIALDNCS | inactive
6 | IQGLCCRHAEFKNY | inactive
7 | IREFSNI | inactive
8 | IRFSCSSSG | inactive
9 | IRLFAVTAYSIVTYVRFMIG | inactive
10 | IRNALIYIVISLKFGRRGCY | 0.107 ± 0.28
11 | IRNFPRDLEFLPFWHSILSL | inactive
12 | IRPWQLCMSKLSHIRRATPY | inactive
13 | IRRQYIYHSNEYRMMHYSES | 0.179 ± 0.85
14 | IRSKCR | inactive
15 | IRVRLINSGAL | inactive
16 | ISCGGLNQ | inactive
17 | ISCTIVLRIVNYNAILVHTY | inactive
18 | ISDTYSWCRYLVIGNYAQLG | 0.463 ± 0.23
19 | ISFNFHSSSTGRA | 1.38 ± 0.11
20 | ISFSWHF | 0.789 ± 0.17
21 | ISGFKIVSYMNKIVVSTMGL | inactive
22 | ISHCMVLRNA | 2.49 ± 0.086
23 | ISHVNRSNLVFLYFIVVL | 0.669 ± 0.15
24 | ISIETGWRNHFTSVPACMLH | inactive

Row | Substance | amyloid nucleation score
25 | ISMSCNYSW | inactive
26 | ISPYIIVPY | inactive
27 | ISSNTGFCPAVMLGIPFFRI | inactive
28 | ISSRGSMTRL | inactive
29 | ISSRSGHVVMSFVCATLRNL | inactive
30 | ISTLSVSLS | -0.258 ± 0.36
31 | ISWNLRGVVLLTYTICSWCI | inactive
32 | ISYVYFLGPCV | 2.13 ± 0.08
33 | ITCLNMTWSTAGQWLCVSFT | 1.05 ± 0.17
34 | ITFLDWKLTTTG | inactive
35 | ITFVYSS | inactive
36 | ITGHRNVLIEHMVTTP | inactive
37 | ITISIYRIGRRFFDEYFNSF | inactive
38 | ITNCFWHWIRAISYANAANS | inactive
39 | ITNCLTSACRTSLFMKTQII | inactive
40 | ITNFIRWNTNV | inactive
41 | ITRLNSMAMCYLIRFLS | inactive
42 | IVADLHIHCEPRFSSHLTYE | inactive
43 | IVCGISMIS | inactive
44 | IVDFFGFNFCSWLSVFSDSR | 2.48 ± 0.056
45 | IVDNYVVAALLVVLS | inactive
46 | IVESQRDASVLRSIPSIRIN | inactive
47 | IVFSGNLLVGNGFGVLKRKT | 1.32 ± 0.14
48 | IVILPM | inactive

Row | Substance | amyloid nucleation score
49 | IVKTPVCSVTRRYPFSDRLL | inactive
50 | IVLYRKVRPCTWAE | inactive
51 | IVQVV | inactive
52 | IVRLFLDVSSVTGHIWARCL | inactive
53 | IVSLSLVMSTDLC | 0.834 ± 0.24
54 | IVTTQHMNGRSDYWITYSSV | -0.447 ± 0.74
55 | IVTYLLFDYHNPTRVSYYEC | inactive
56 | IVVVAFKSPSV | 0.217 ± 0.32
57 | IVYLAVFRWGSMSKSRFGFD | inactive
58 | IVYREVCVFVNM | 1.78 ± 0.063
59 | IWCQRYYAIGRRVPKASYDG | -0.179 ± 0.78
60 | IWFSLLVPDLPRIIGSLYIS | inactive
61 | IWIMLHSCELWYADKADLDG | inactive
62 | IWKGCSACFGKD | -0.222 ± 1.2
63 | IWSMWIYCRNGHH | inactive
64 | IWVENQFDRRFLGVSMF | inactive
65 | IYCTFAAFSHCQQWKNLFWR | -0.456 ± 1.1
66 | IYDAGFVYQIGTEEQVCNRV | inactive
67 | IYFDVV | inactive
68 | IYGTRGSIKSYDTHSGRCGR | inactive
69 | IYIKCFNVSFLRSADWSKCA | inactive
70 | IYIRRVRISVEATLRHCCVI | inactive
71 | IYISFWR | 0.521 ± 0.2
72 | IYNRNGRF | inactive

Row | Substance | amyloid nucleation score
73 | IYRNKSTWWYWAWLVRNPML | inactive
74 | IYSTWET | -0.698 ± 1.5
75 | IYSVYWDGMEPSIRTGWI | inactive
76 | IYTLSTLLWFWSAWSILAVI | -0.197 ± 1.1
77 | IYTSFVTMERALSMFSPLFH | inactive
78 | IYWLSDN | inactive
79 | KALVGKYFKMCRTCDRYFYC | -0.416 ± 0.98
80 | KARLLMWS | 0.181 ± 0.28
81 | KCGIQLICMWFS | 1.47 ± 0.14
82 | KCNPVINFLWEMVLSDVFPL | inactive
83 | KCRDLIRNVVPNSAIELDPS | inactive
84 | KDALISYFYYDCMHCPQASR | inactive
85 | KDCASGSRSTAIFAFCSGAF | 0.281 ± 0.27
86 | KDRHVSYFGLYKLGWRYTPS | inactive
87 | KDTQWALYRNL | inactive
88 | KEDLTSLVTLEKEALLVSDE | inactive
89 | KFANYSPRDGTCGTDAHVSD | inactive
90 | KFEGLF | inactive
91 | KFGDPIRFWVTYYTNRSWSG | -0.732 ± 1.4
92 | KFGFLYPISCDVYGQDFLAL | inactive
93 | KFKFVLILSEDAKAT | 1.23 ± 0.17
94 | KFLKLQVYASNGSSDPPRLD | inactive
95 | KFNGCR | inactive
96 | KFSSMGTVSLSGKSLYSDAV | inactive

Row | Substance | amyloid nucleation score
97 | KFVVDARFVTS | 1.33 ± 0.13
98 | KGCPVASMAQWNSCMCYVLV | 1.08 ± 0.12
99 | KGGCW | inactive
100 | KGSFFLDCFGARRRIGLVKF | inactive
101 | KGTLGCNSSSHVLIAVCNAM | inactive
102 | KHVNLWSVGWFLGFLVWSRA | inactive
103 | KHYDLGFQYFSR | inactive
104 | KICVPSCSCTIFLDLFRY | 2.56 ± 0.08
105 | KILFILISFLWMLFLVWNFN | 1.48 ± 0.1
106 | KIQRYNILSGTCVFI | 1.51 ± 0.089
107 | KISFWVRERFNYRCTIGIEC | inactive
108 | KISGNFKILDWVGNFSDGNS | inactive
109 | KISNFLTSSLCMYGSLRWRV | 0.548 ± 0.2
110 | KKHIVY | inactive
111 | KKISAQESEFVGSPFEYGGG | inactive
112 | KKYLTNVDLNVSN | inactive
113 | KLCGHIIYCVV | inactive
114 | KLEREMADNDVARGGQLVLG | inactive
115 | KLFGTKIVIVDVDSLCYMVL | inactive
116 | KLFSYRRRPNINCLG | inactive
117 | KLLLYMMYNRYLPM | 0.528 ± 0.32
118 | KLLSRYSTACMLRINLIRRY | inactive
119 | KLQHIFLFFDRS | 1.1 ± 0.11
120 | KLRCNTIKGFCSHKTRMGRT | inactive

Row | Substance | amyloid nucleation score
121 | KLVICYCGYNHDCVVCTKRE | 1.56 ± 0.094
122 | KLVQLYTLKFFGLNCSKSVI | inactive
123 | KLYIQCIYPDLVVINCDSWN | 2.39 ± 0.073
124 | KNDGKEF | inactive
125 | KNDGTIVQM | inactive
126 | KNLGLA | inactive
127 | KNLHNTRRLCSVLLVCWMYK | inactive
128 | KNQYSNSRLWYGALECHAPG | inactive
129 | KNVFGSSFLLVVSYCNISAF | 1.95 ± 0.091
130 | KPCHASVET | inactive
131 | KPCSLIRWPIKASMFSYVHS | inactive
132 | KPMVYFQLRRLSKKVIYCAM | inactive
133 | KQRVWR | inactive
134 | KRCRFVVIFKSGIVTLWKLF | 0.568 ± 0.42
135 | KRDLGTNAFTMNRRCYQDTL | inactive
136 | KREPKS | inactive
137 | KRNSYTMFLA | inactive
138 | KRPHV | inactive
139 | KSALYADLVGYLGSACMGSR | inactive
140 | KSHPLNSVPEKLMLVWRSWK | inactive
141 | KSICELVIRRNFVSLNIATY | -0.336 ± 0.7
142 | KSKHTVMRWSLYSRRIMLVF | inactive
143 | KSMSLKTFCGWGETQYVFFV | inactive
144 | KSQMCNMMRRFYLRCIDLRL | inactive

Row | Substance | amyloid nucleation score
145 | KSSIMKGKLTHRGSQWFASQ | inactive
146 | KSSSAYNRSDHGLMLDRRTQ | inactive
147 | KSTSFTYFLLNIRLMGYCPC | 0.725 ± 0.16
148 | KTLVIYYTFKIGNILHIHLF | inactive
149 | KTPLSSSCRKILIINTPRGM | inactive
150 | KTYPTLCILCVDMLLRKRGV | inactive
151 | KVCIHSIEIV | inactive
152 | KVMTDIPDV | inactive
153 | KVRSVDCRNTSNKDHW | inactive
154 | KVVRVIVSEGNRVIKFTTMP | inactive
155 | KVVVKEIQILVGSAGSKRMS | 0.638 ± 0.25
156 | KVVVTIRTVCRKKVDVICID | 0.071 ± 0.72
157 | KWFMVA | inactive
158 | KWGIGMGPSHSGLISWGHNE | -0.448 ± 1.8
159 | KWPQLIWSGTYFKPFWSING | inactive
160 | KYANILSFTPFNQQSI | inactive
161 | KYCHIYFNICLWLAYSLSFL | inactive
162 | KYCRRVYSSAETLYVLTHI | inactive
